Source: patent publication US20230398116A1, “Agent for reversing resistance to anticancer drugs” (Y'S AC CO., LTD., priority 2020, published 2023)

Legend:
[1] = system: MDA-MB468 cells; test: MTT assay / cell proliferation (confluence) assay, MDA-MB468; type: cell-based, human
Experimental: (§1) Human and mouse breast cancer cells (1×10^4) were cultured in 10% FCS containing RPMI1640 medium on a 96-well flat bottom plate (Corning, Tewksbury, MA) at 37° C. for 24 hours, and then stimulated with IL-26 for 48 hours in the presence or absence of EGFR-TKI (gefitinib or erlotinib) at various concentrations, a signal inhibitor, and a neutralizing antibody. HUVECs were seeded in a 96-well flat bottom plate at 5×10^3 cells/well in a 2% FBS-containing EGM medium in which growth factors were reduced by half, and cultured at 37° C. for 12 hours. Thereafter, the medium was aspirated, and a recombinant human IL-26 dimer was adjusted to a final concentration of 10 ng/mL in a 2% FBS-containing EGM medium containing no growth factors, and added to the cells. The stimulation was started in the presence or absence of control human IgG and anti-human IL-26 antibodies, and the cells were cultured for 48 hours. Thereafter, a concentration of 20 μl or 1/10 of a 5 mg/ml MTT solution (Tetrazolium monosodium salt, WST-8) was added to each well, and the plate was allowed to stand for 1 hour. The absorbance at 450 nm/595 nm was measured using Microplate Reader (Bio-Rad, Hercules, CA) and data was analyzed with Microplate Manager 6 software (Bio-Rad).
(§2) Human and mouse breast cancer cells (1×10^4) were cultured in RPMI1640 medium containing 10% FCS for 24 hours at 37° C. on a 96-well flat bottom plate (Corning), and then stimulated with IL-26 (30 ng/ml) in the presence or absence of various concentrations of gefitinib and a neutralizing antibody. Cell proliferation was measured as cell confluence using IncuCyte ZOOM (Essen Bioscience, Ann Arbor, MI).

[2] = system: T47D cells; test: MTT assay / cell proliferation (confluence) assay, T47D; type: cell-based, human; conditions: 48 hours
Experimental: as §1, with “The stimulation was started in the presence or absence of control human IgG and anti-human IL-26 antibodies, and the cells were cultured for 48 hours. Thereafter, a concentration of 20 μl or 1/10 of a 5 mg/ml MTT solution (Tetrazolium monosodium salt, WST-8) was added to each well, and the plate was allowed to stand for 1 hour.” left out
as §2

[3] = system: phosphorylation of AKT, JNK, STAT3 and EphA3 in E0771 cells; test: Western blotting of phosphorylation in E0771 cells; type: cell-based, mouse
Experimental: To analyze the phosphorylation of AKT, ERK, p38, JNK, STAT3, and EphA3, E0771 cells and HCC70 cells in 100 mm dishes were stimulated with IL-26 ([…]) and an anti-EphA3 polyclonal antibody (pAb) (10 μg/ml) for a specified period of time. After stimulation, the cells were lysed with a 2% protease inhibitor mixture (Sigma-Aldrich) and/or RIPA buffer added with 1×PhosSTOP (Roche Diagnostics, Tokyo, Japan), and a lysate was separated in a reduced state by SDS-PAGE (15 μg/lane). Immunoblots were performed using an anti-phosphorylated AKT antibody, an anti-phosphorylated ERK antibody, an anti-phosphorylated p38 antibody, an anti-phosphorylated JNK antibody, an anti-phosphorylated STAT3 antibody, and an anti-phosphorylated EphA3 antibody that recognize both human and mouse antigens. For reprobing, the membrane was immersed in a stripping buffer. After the stripping procedure, the membranes were re-probed with anti-pan-AKT, anti-pan-ERK, anti-pan-p38, anti-pan-JNK, anti-pan-STAT3, and anti-pan-EphA3 antibodies recognizing both human and mouse antigens. Images were taken using a C-Digit Blot scanner (MS Techno Systems, Inc., Japan).

[4] = system: HCC70 cells; test: JC-1 staining (mitochondrial membrane potential) of HCC70 cells; type: cell-based, human; conditions: 24 hours, FIG. 31
Experimental: Mitochondrial stability was evaluated using the mitochondrial membrane potential (ΔΨm) assay kit (Cayman Chemical, Ann Arbor, MI, USA) utilizing JC-1 staining. HCC70 cells (1×10^4 cells) were stimulated with IL-26 (30 ng/ml) in the presence or absence of gefitinib (40 μM), a signal inhibitor, and a neutralizing antibody in 96-well flat bottom plate (Corning) for 24 hours. […] Stained cells were quantified using Image-J software (NIH). Images were captured using a 40× objective.

[5] = system: endoplasmic reticulum stress signaling in E0771 cells; test: qRT-PCR of endoplasmic reticulum stress markers in E0771 cells; type: cell-based, mouse; conditions: 6 hours
Experimental: E0771 cells, HCC70 cells, and MDA-MB-468 cells were cultured in RPMI1640 medium containing 10% FCS on a 6-well plate (Corning), and then stimulated with IL-26 (30 ng/ml) in the presence or absence of gefitinib for 3, 6, or 12 hours. The cells were harvested and total RNA was extracted. cDNA was synthesized using PrimeScript II first-strand cDNA synthesis kit (TaKaRa Bio, Japan) and oligo (dT) primers. The mRNA levels were measured by 7500 System SDS software (Applied Biosystems, Foster City, CA) and normalized to hypoxanthine phosphoribosyltransferase expression levels.

[6] = target: T1, interaction between IL-26 and EphA3 (Homo sapiens, UniProt Q9NPH9); test: Immunofluorescence of rhIL-26-Alexa488 and cell surface EphA3 on HCC70 cells; type: cell-based
T1 construct: purchased R&D Systems; host or cells: IL-26 was purchased; EphA3 is endogenous on HCC70 cells
T1 sequence (Q9NPH9 22-171): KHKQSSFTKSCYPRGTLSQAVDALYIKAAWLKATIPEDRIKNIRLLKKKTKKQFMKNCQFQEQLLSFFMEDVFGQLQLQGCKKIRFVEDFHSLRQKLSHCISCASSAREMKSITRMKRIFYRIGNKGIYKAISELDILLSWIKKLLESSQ
Experimental: E0771 and HCC70 cells (1×10^5) were cultured for 24 hours in RPMI1640 medium with 10% FCS on Lab-Tek chamber slides (Thermo Fisher Scientific). The cultured cells were stimulated with Alexa Fluor 488 labeled IL-26 (30 ng/ml) in the presence or absence of recombinant human and mouse EphA3-Ig for 1 hour. HCC70 cells were stimulated with IL-26 (30 ng/ml) in the presence or absence of gefitinib (40 μM), a signal inhibitor, and a neutralizing antibody for 24 hours. Subcutaneous tumor samples obtained from mice were fixed in 4% paraformaldehyde (Thermo Fisher Scientific) and embedded in OCT compound (Tissue-Tek (registered trademark), Sakura Finetek, Japan). Cells and slides were immunostained with each antibody and observed using a Zeiss inverted microscope and Axiovision 2.0 program (Carl Zeiss, Germany). The fluorescence intensity was quantified with Image-J software (NIH). The images were captured using a 100×400× objective.

[7] = E0771, IL-26 30 ng/ml, gefitinib 20 μM

## COc1cc2ncnc(Nc3ccc(F)c(Cl)c3)c2cc1OCCCN1CCOCC1 [gefitinib, Gefitinib, reference compound]
[1]; MDA-MB468, 48 hours, FIGS. 4A, 4B
  cell proliferation under gefitinib: suppression of cell proliferation
[2]; FIGS. 4C, 4D
  cell proliferation under gefitinib: suppression of cell proliferation
[3]; E0771, gefitinib 20 μM, FIG. 24B
  AKT and JNK phosphorylation under gefitinib: suppression of AKT and JNK phosphorylation
[4]; HCC70, gefitinib 40 μM
  mitochondrial activity, gefitinib treatment: significantly reduced mitochondrial activity
[5]; E0771, gefitinib 20 μM, FIG. 29
  mRNA expression levels of DDIT3, ATF3 and ATF4, gefitinib treatment: significantly increased
[5]; E0771, gefitinib 20 μM, FIG. 34
  mRNA expression levels of endoplasmic reticulum stress-related cytokines/chemokines, gefitinib treatment: significantly increased

B1: IL-26: recombinant human IL-26 dimers for cell stimulation, R&D Systems (protein)
chain: T1 sequence (Q9NPH9 22-171)
[1]; MDA-MB468, 48 hours
  effect of exogenous IL-26 on suppression of cell proliferation by gefitinib: inhibited
[1]; MDA-MB-468, IL-26 30 ng/ml, erlotinib 30 μM or 50 μM, 48 hours, MTT
  effect of exogenous IL-26 on inhibitory effect of erlotinib: inhibited the inhibitory effect of erlotinib on cell proliferation
[2]
  effect of exogenous IL-26 on suppression of cell proliferation by gefitinib: inhibited
[6]; HCC70, FIG. 21
  colocalization of exogenous IL-26 with cell surface EphA3: colocalized with the cell surface EphA3 of HCC70
[3]; E0771, IL-26 30 ng/ml, 0 to 60 minutes, FIG. 24A
  phosphorylation of EphA3: induced dephosphorylation of EphA3
[3]; E0771, IL-26 30 ng/ml, FIG. 5E
  AKT and JNK phosphorylation: activated AKT and JNK phosphorylation
  STAT3 activation: did not activate STAT3
[4]; HCC70, IL-26 30 ng/ml, gefitinib 40 μM
  mitochondrial activity, IL-26 with gefitinib: significantly inhibited the reduction in mitochondrial activity
[5]; [7]
  mRNA expression levels of DDIT3, ATF3 and ATF4, IL-26 with gefitinib: significantly decreased
  mRNA expression levels of endoplasmic reticulum stress-related cytokines/chemokines, IL-26 with gefitinib: significantly reduced

B2: 69-10: mouse anti-human IL-26 monoclonal antibody, clone 69-10, from deposited hybridoma (antibody, V domains shown)
VH: QVTLKESGPGILKPSQTLSLTCSFSGFSLSTSGMGVGWIRQPSGKGLEWLAHIWWDDDKYYNPSLKSQLTISKDTSRNQVFLKITSVDTADTATYYCVRGGITATHYYAMDYWGQGTSVTVSS
VL: DIQMTQSPASQSASLGESVTISCLASQTIGTWLSWYQQKPGKSPQLLIYAATSLADGVPSRFSGSGSGTKFSFKISSLQAEDFVSYYCQQLYSSPWTFGGGTKLEIK
[6]; HCC70, rhIL-26-Alexa488 30 ng/ml, 50 μg/ml each, 1 hour, FIG. 21
  inhibition of interaction between IL-26 and EphA3: clearly inhibited the interaction between IL-26 and EphA3
